Patent US20060134801A1, “Methods and compositions involving MDA-7” (Board of Regents, The University of Texas System, priority 2003, published 2006)

Legend:
Type in all cases: cell-based, human
[1] = test system: STAT-3; experiment: STAT-3 activation, western blot and immunofluorescence; conditions: HUVEC; 10 ng/ml; 4 h to 24 h
Protocol: Therefore, studies were conducted to determine the activation of STAT-3 expression in endothelial cells after treatment with sMDA-7. HUVEC were seeded in 6-well plates (5×10^5 cells/well) and treated with sMDA-7 (10 ng/ml). Untreated cells served as negative controls. Cells were harvested at 4 h and 24 h after treatment and analyzed for STAT-3 expression by western blot analysis as previously described (Mhashilkar et al., 2001; Pataer et al., 2002). […] (pSTAT-3) protein was detected using rabbit anti-human pSTAT-3 antibody (1:1000, Cell Signaling Technology, Beverly, Mass.) and horseradish peroxidase-labeled secondary antibody (Amersham Biosciences, Piscataway, N.J.). Finally, the proteins were visualized on enhanced chemiluminescence film (Hyperfilm, Amersham Biosciences, Piscataway, N.J.) by application of Amersham's enhanced chemiluminescence western blotting detection system. STAT-3 protein expression level was quantitated after normalization with total STAT-3 protein expression using Image Quant software (Molecular Dynamics, Amersham Pharmacia Biotech, Piscataway, N.J.).
Activation of STAT-3 was also determined by immunofluorescence assay. […] Pictures were taken through a fluorescence microscope 1-2 h after staining.

[2] = test system: HUVEC and HMVEC; experiment: Endothelial cell proliferation assay (trypan blue); conditions: 1, 5, 10, 50 ng/ml; 1 ng/ml bFGF; vs PBS
Protocol: To test the effect of sMDA-7 protein on cell proliferation, endothelial cells (HUVEC, HMVEC) were serum-starved overnight. The next day, cells were seeded in 2-well chamber slides (1−10^4/well). The cells were allowed to adhere and spread for 4-6 h, and fresh medium containing 1 ng/ml of bFGF as a proangiogenic stimulator, and various concentrations of sMDA-7/IL-24 (1, 5, 10, and 50 ng/ml) was added. Cells treated with PBS served as controls. Cells were then harvested 3 days after treatment and cell proliferation determined by trypan blue exclusion assay method as previously described (Saeki et aL, 2000). The effect of sMDA-7 on lung tumor cell (H1299, and A549) proliferation was also evaluated. The experimental conditions were the same as described above for endothelial cells except that tumor cells were not stimulated with bFGF.

[3] = test system: A549 cells and CCD16 cells; experiment: Clonogenic survival with MDA-7 conditioned medium and radiation; conditions: 10 ng/ml
Protocol: FIG. 60. Clonogenic survival of A549 cells (A) and CCD16 cells (B). Cells were serum starved for 12 hours and treated with conditioned medium containing mda7 protein (10 ng/ml). Twelve hours later, cells were irradiated, harvested and plated in regular medium. After incubation for 14 days, colonies were counted and survival.
Twelve hours after seeding HUVECs in 4-well plates (Nunc, Roskilde, Denmark), medium was replaced with serum/growth factor-free medium. After serum/growth factor starvation for 12 hours, cells were treated with complete medium containing either MDA-7 protein (10 ng/ml) (removed from cultures of 293 cells), angiostatin (100 ng/ml), or endostatin (100 ng/ml). Twelve hours later, cells were irradiated with ^137CS unit (3.4 Gy/min) at room temperature, trypsinized and counted. Known numbers of cells were replated in 60 mm culture dishes and incubated to allow macroscopic colony development. Colonies were counted after 14 days, and the percent plating efficiency and surviving fractions following given treatments were calculated based on the survival of non-irradiated cells.

[4] = test system: A375; experiment: TUNEL apoptosis assay; conditions: 40 ng/ml, 3 days
Protocol: (§1) The mechanism of the anti-tumor activity of rhMDA-7 was also evaluated. Melanoma cells were treated with rhMDA-7 protein and assessed for apoptosis using the TUNEL assay. […] These studies were performed with purified rhMDA-7 protein. The melanoma cells have also been treated with supernatant from 293-mda7 cells or control 293 cells. Only the 293-mda7 supernatant causes cell killing.

[5] = test system: WM35; experiment: TUNEL apoptosis assay; conditions: 40 ng/ml, 3 days
Protocol: as §1

[6] = test system: WM793; experiment: TUNEL apoptosis assay; conditions: 40 ng/ml, 3 days
Protocol: as §1

[7] = test system: MeWo; experiment: TUNEL apoptosis assay; conditions: 40 ng/ml, 3 days
Protocol: as §1

[8] = test system: SK-Mel-1; experiment: TUNEL apoptosis assay; conditions: 40 ng/ml, 3 days
Protocol: as §1

[9] = test system: A375.S2; experiment: TUNEL apoptosis assay; conditions: 40 ng/ml, 3 days
Protocol: as §1

[10] = test system: A375; experiment: Trypan blue viability; conditions: 40 ng/ml, 3 days
Text: (§2) rhMDA-7 (IL-24) protein was purified from 293-mda7 cells using affinity chromatography. Various lots of protein ranged from 30% ->80% purity based upon silver stain. The rhMDA-7 protein was applied to melanoma cell lines, and cells assessed for viability using the Trypan blue assay. […] Treatment of melanoma cells with rhMDA-7 results in rapid activation (via phosphorylation) of STAT3. The cytotoxicity observed in melanoma cells is inhibited by anti-MDA-7 antibodies.
as §1

[11] = test system: WM35; experiment: Trypan blue viability; conditions: 40 ng/ml, 3 days
Text: as §2, §1

[12] = test system: WM793; experiment: Trypan blue viability; conditions: 40 ng/ml, 3 days
Text: as §2, §1

[13] = test system: MeWo; experiment: Trypan blue viability; conditions: 40 ng/ml, 3 days
Text: as §2, §1

[14] = test system: SK-Mel-1; experiment: Trypan blue viability; conditions: 40 ng/ml, 3 days
Text: as §2, §1

[15] = test system: A375.S2; experiment: Trypan blue viability; conditions: 40 ng/ml, 3 days
Text: as §2, §1

B1: sMDA-7: soluble secreted human MDA-7 (IL-24) protein purified from stably transfected 293-mda-7 cells (protein)
chain: AQGQEFHFGPCQVKGVVPQKLWEAFWAVKDTMQAQDNITSARLLQQEVLQNVSDAESCYLVHTLLEFYLKTVFKNYHNRTVEVRTLKSFSTLANNFVLIVSQLQPSQENEMFSIRDSAHRRFLLFRRAFKQLDVEAALTKALGEVDILLTWMQKFYKL
In the case of B1, the “increase in pSTAT-3 expression over PBS treated control” value [1] is reported as 2-3 times, the antiproliferative activity [2] is reported as “no significant antiproliferative activity” and the radiosensitizing effects [3] is reported as “does not produce radiosensitizing effects”. For the same molecule, the “% TUNEL Positive” value [4] was 18.78%, the “% TUNEL Positive” value [5] was 17.88% and the “% TUNEL Positive” value [6] was 9.88%. The “% TUNEL Positive” value [7] was 12.11%, the “% TUNEL Positive” value [8] was 5.0% and the “% TUNEL Positive” value [9] was 12.3%. The “% Dead” value [10] was 26.6%, the “% Dead” value [11] was 17.6% and the “% Dead” value [12] was 5.2%. For the same molecule, the “% Dead” value [13] was 20%, the “% Dead” value [14] was 5.2% and the “% Dead” value [15] was 22.2%.
